To fix the notation:
T1: IdeR (iron-dependent regulator) (Mycobacterium tuberculosis, UniProt P9WMH1 1-230)
T1 sequence: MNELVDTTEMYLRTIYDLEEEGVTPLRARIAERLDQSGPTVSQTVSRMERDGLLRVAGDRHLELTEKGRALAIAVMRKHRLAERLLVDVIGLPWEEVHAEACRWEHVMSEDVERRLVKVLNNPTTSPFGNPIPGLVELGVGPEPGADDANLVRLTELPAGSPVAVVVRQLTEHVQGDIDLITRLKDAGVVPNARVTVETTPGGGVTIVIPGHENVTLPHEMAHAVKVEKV

B1: DIP0586 motif (iucA) (dsDNA)
DNA 1: TTAGGGTAGCTTCGCCTAA
DNA 2: TTAGGCGAAGCTACCCTAA
B2: DIP2272 motif (sortase) (dsDNA)
DNA 1: TGTGGGCACACCAACCTAA
DNA 2: TTAGGTTGGTGTGCCCACA
B3: DIP0699 motif (secA) (dsDNA)
DNA 1: TTGTGTTAGCCTAGGCTAA
DNA 2: TTAGCCTAGGCTAACACAA
B4: negative control motif (dsDNA)
DNA 1: TTTTCATGACGTCTTCTAA
DNA 2: TTAGAAGACGTCATGAAAA
B5: DIP2161 motif (sidA) (dsDNA)
DNA 1: TTAGGGTAGGCTAATCCAA
DNA 2: TTGGATTAGCCTACCCTAA
B6: DIP2304 motif (FpG) (dsDNA)
DNA 1: TTGGGGTGGCCTATCCTTA
DNA 2: TAAGGATAGGCCACCCCAA

This data set deals with T1, IdeR (iron-dependent regulator). The data set can be described thus: EMSA; 200 uM Mn2+; 30 pmol IdeR. The settings on record: protein: recombinant; tags: 6xHis (pRSET vector); chain copies: 4; label: 32P end label; blunt. In general terms: In EMSA bound probe runs differently from free probe, usually more slowly.
B1: the binding result is given as “binds”.
The same measure for B2: “binds”; for B3: “binds”.
To B4 belongs “no binding”; to B5, “binds”.
As to B6, the binding result is “binds”.

(Values after paper PMC524172, “Yellaboina Sailu 1 sailu@cdfd.org.in”.)
